# Results: US20210371505A1 (Regeneron, published 2021)
# B1: H1H14611N2 (antibody, V domains shown)
# VH: EVQLVESGGGLVKPGGSLRLSCAASGFTFSGFSMNWVRQVPGKGLEWVSSISTSGNYMYYADSVKGRFTISRDNAKKSFSLQMNSLRAEDSAIYYCARGGGYNWNLFDYWGQGSLVTVSS
# VL: EIVLTQSPGTLSLSPGERATLSCRASQSLNSNYLAWYQQKPGQAPRLLIYGASSRATGIPDRFSGSGSGTDFTLTITRLESEDFAVYYCQQYGNSPLTFGGGTKVEIK
# Assays:
# Assay in all cases: cell-based or functional assay
# [1] = biological target: T1, Hemagglutinin of influenza virus A/Aichi/02/1968-PR8-X31 (H3N2) (Influenza A virus …, UniProt P03437 17-566)
# [2] = biological target: T1, Hemagglutinin of influenza virus …; remark: listed apart in the source
# [3] = biological target: Hemagglutinin of influenza virus A/Philippines/01/1982 (H3N2) (Influenza A virus A/Philippines/01/1982 …)
# [4] = biological target: Hemagglutinin of influenza virus A/Shanghai/01/2013-PR8 (H7N9) (Influenza A virus …)
binder,measurement,setting,value
B1,"EC50, complement-dependent cytotoxicity of virus-infected MDCK cells",[1],140 nM
same,"IC50 of neutralization, cell viability microneutralization assay on MDCK cells",[2],7.83 nM
same,"IC50 of neutralization, cell viability microneutralization assay on MDCK cells",[3],68.4 nM
same,"IC50 of neutralization, cell viability microneutralization assay on MDCK cells",[4],405 nM
